# Values quoted from earlier work in paper PMC4370504.
# pKd: −log10 of the molar value.
# Molecular target: ubiquitin (Homo sapiens) (UniProt P0CG47)
# Test: ITC
# Pol eta UBZ, sequence (Q9Y253 625-665): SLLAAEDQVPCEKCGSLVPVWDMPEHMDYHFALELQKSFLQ
substance,measurement,value
Pol eta UBZ (from UniProt Q9Y253),pKd,4.09
